Experimental data published in the Immune Epitope Database (IEDB).

How the values were obtained:
Assay in all cases: IEDB peptide-MHC binding, purified MHC/competitive/radioactivity; filed as Kd, often an IC50 or EC50 that approximates it; ≥ and ≤ were set here for values at or beyond the usual limits of such assays
HLA-A*02:06 = target: HLA-A*02:06
HLA-A*02:02 = target: HLA-A*02:02
HLA-A*02:03 = target: HLA-A*02:03
HLA-A*11:01 = target: HLA-A*11:01
HLA-A*03:01 = target: HLA-A*03:01
HLA-A*33:01 = target: HLA-A*33:01
HLA-A*68:01 = target: HLA-A*68:01
HLA-A*31:01 = target: HLA-A*31:01
[1] = source organism: Vaccinia virus WR
[2] = source organism: Dengue virus 4 Philippines/H241/1956
[3] = source organism: SARS coronavirus Tor2
[4] = source organism: Dengue virus 1 Brazil/97-11/1997

Sequence | Kd (HLA-A*02:06; [1]) [µM] | Kd (HLA-A*02:02; [1]) [µM] | Kd (HLA-A*02:03; [1]) [µM] | other results
AAVTLNRIKI | 1.92 | 0.83 | 3.49 | 
AVTLNRIKIA | 2.29 | 1.72 | 1.29 | 
CTINVNSLA | 0.248 | 1.04 | 1.61 | 
DLNSFEQLCI |  |  |  | Kd (HLA-A*02:06; source organism: Homo sapiens): ≥ 128 µM
DMLLNVQTL | 13.4 | 7.4 | 5.07 | 
DVLPFDIKYI | 1.11 | 1.2 | 0.188 | 
DVNEEYTEAA | ≥ 59.2 | ≥ 46.3 | ≥ 28.8 | 
ETDDDGNYPL | 1.16 | 3.59 | ≥ 28.2 | 
ETNIGCAVNT | ≥ 69.8 | ≥ 70 | ≥ 37 | 
ETVKMGAFM | ≥ 40.4 | 15 | 7.43 | 
FIDRGSIKI | 4.03 | 9.72 | 12.2 | 
FLPQIGGEA | 0.0958 | 0.0211 | 0.121 | 
GIDTSNNIA | ≥ 25.2 | ≥ 49.7 | ≥ 71.4 | 
GIRCVSNLDI | ≥ 32.9 | ≥ 20.1 | 3.87 | 
GLESIEQNLT | ≥ 69.8 | 7.02 | ≥ 61.3 | 
GLVSLLGSA |  |  |  | Kd (HLA-A*02:03; [2]): 0.00412 µM
GQIHLAIMAV |  |  |  | Kd (HLA-A*02:06; [2]): 0.00133 µM
HILHAYCGI | 0.359 | 0.123 | 0.0665 | 
HINDQKFDDV | 1.19 | 5.86 | 1.16 | 
IIAVFDSKLI | 8.51 | 0.758 | 0.595 | 
IISTDQDTML | 0.666 | 0.451 | 1.81 | 
ITGNKVKTEL | ≥ 69.8 | ≥ 70 | ≥ 70.4 | 
IVAMLLTHGA | 0.0822 | 1.16 | 0.153 | 
IVSRSSRGV | 0.476 | 0.264 | 13.2 | 
KIDKLTFQI | 0.0419 | 0.141 | 10.6 | 
KVEKYLPEVI | 0.734 | 12.1 | 12.4 | 

Sequence | Kd (HLA-A*02:06; [1]) [µM] | Kd (HLA-A*02:02; [1]) [µM] | Kd (HLA-A*02:03; [1]) [µM] | other results
KVIGLYGNGV |  |  |  | Kd (HLA-A*02:06; [2]): 0.0123 µM
LIYYQNEVT | 8.51 | 14 | 5.21 | 
LLFLVLIMLI |  |  |  | Kd (HLA-A*02:06; [3]): 8.3 µM; Kd (HLA-A*02:02; [3]): 0.447 µM; Kd (HLA-A*02:03; [3]): 3.15 µM
LLFMILTVAA |  |  |  | Kd (HLA-A*02:03; [4]): 0.468 µM
LLMLVTPSMA |  |  |  | Kd (HLA-A*02:03; [4]): 0.0236 µM
LLNETAKVI | 15.4 | 0.319 | 0.0714 | 
MAEFEDQLV | 5.51 | 0.165 | 0.641 | 
MLHNPTSET | ≥ 77.1 | 4.21 | 0.184 | 
NIVASVNMV |  |  |  | Kd (HLA-A*02:03; source organism: Dengue virus 3 Martinique/1243/1999): 0.0829 µM
NIVTDLENR |  |  |  | Kd (HLA-A*11:01; [1]): 8.74 µM; Kd (HLA-A*03:01; [1]): 9.09 µM; Kd (HLA-A*33:01; [1]): 0.832 µM; Kd (HLA-A*68:01; [1]): 0.0219 µM; Kd (HLA-A*31:01; [1]): 1.74 µM
NIVTFINDYA | 0.351 | 0.0618 | 0.245 | 
NMWREILSNT | 12 | 6.06 | 0.0561 | 
NTLIQYRQQL | ≥ 20.9 | 6.37 | 10.1 | 
NVKSKLLWFL | ≥ 31 | 2.29 | 0.633 | 
PAGRPNYVK |  |  |  | Kd (HLA-A*11:01; [1]): 0.21 µM; Kd (HLA-A*03:01; [1]): ≥ 31.9 µM; Kd (HLA-A*33:01; [1]): 7.21 µM; Kd (HLA-A*68:01; [1]): 15.9 µM; Kd (HLA-A*31:01; [1]): 0.012 µM
PASKKESVI | 10.3 | 1.35 | 1.76 | 
PTWLGAAITL | 1.77 | 1.36 | 1.01 | 
PVSDLYTSMR |  |  |  | Kd (HLA-A*11:01; [1]): 0.638 µM; Kd (HLA-A*03:01; [1]): 6.26 µM; Kd (HLA-A*33:01; [1]): 0.346 µM; Kd (HLA-A*68:01; [1]): 0.0013 µM; Kd (HLA-A*31:01; [1]): 0.539 µM
QIGEYTFEK |  |  |  | Kd (HLA-A*11:01; [3]): 0.00993 µM; Kd (HLA-A*03:01; [3]): 0.0487 µM; Kd (HLA-A*33:01; [3]): ≥ 22.2 µM; Kd (HLA-A*68:01; [3]): 0.589 µM; Kd (HLA-A*31:01; [3]): 1.92 µM
QIYLSDSDNI | 14.9 | 1.24 | 19.6 | 
QMAGVEVRYI | 0.0448 | 0.000208 | 0.000138 | 
QQFANVISKI | 0.863 | 0.0515 | 0.0017 | 
QTMLFTMLRK |  |  |  | Kd (HLA-A*11:01; [3]): 0.00457 µM; Kd (HLA-A*03:01; [3]): 0.0111 µM; Kd (HLA-A*33:01; [3]): 0.268 µM; Kd (HLA-A*68:01; [3]): 0.0199 µM; Kd (HLA-A*31:01; [3]): 0.164 µM
RAGYSIVEL | 5.07 | 4.94 | 5.39 | 
RAVKFAEESY |  |  |  | Kd (HLA-A*11:01; [1]): 14.5 µM; Kd (HLA-A*03:01; [1]): 14.8 µM; Kd (HLA-A*33:01; [1]): ≥ 70 µM; Kd (HLA-A*68:01; [1]): 7.29 µM; Kd (HLA-A*31:01; [1]): ≥ 70 µM
RLRQDTEDI | 4.58 | 0.23 | 0.387 | 
